Test results as given in publication PMC13043726, “SFPQ directs histone H3.3 deposition to R-loops in DNA repeats to protect genome stability”.
Each block holds one molecule with its values, some of them ahead of it.

What was measured:
[1] = target: HA-tagged DAXX, full length (UniProt Q9UER7); experiment: co-immunoprecipitation (IP anti-HA, blot anti-Myc); conditions: U-2 OS cells; parent: 1
SFPQ full-length = target: T1, SFPQ full-length (Homo sapiens, UniProt P23246 1-707); experiment: EMSA; EMSA: 10 nM probe, 0-1600 nM SFPQ, 20 mM Tris-HCl pH 7.5, 100 mM KCl, 0.5 mM MgCl2, 0.5 mM EDTA, 0.2 mM DTT, 1% glycerol, room temperature, 30 min (RNaseOUT with RNA); 5% native PAGE, 1xTBE; conditions: protein: recombinant, tags: N-terminal His6-myc (vector pNIC-CTHF), chain copies: 2
T1 sequence: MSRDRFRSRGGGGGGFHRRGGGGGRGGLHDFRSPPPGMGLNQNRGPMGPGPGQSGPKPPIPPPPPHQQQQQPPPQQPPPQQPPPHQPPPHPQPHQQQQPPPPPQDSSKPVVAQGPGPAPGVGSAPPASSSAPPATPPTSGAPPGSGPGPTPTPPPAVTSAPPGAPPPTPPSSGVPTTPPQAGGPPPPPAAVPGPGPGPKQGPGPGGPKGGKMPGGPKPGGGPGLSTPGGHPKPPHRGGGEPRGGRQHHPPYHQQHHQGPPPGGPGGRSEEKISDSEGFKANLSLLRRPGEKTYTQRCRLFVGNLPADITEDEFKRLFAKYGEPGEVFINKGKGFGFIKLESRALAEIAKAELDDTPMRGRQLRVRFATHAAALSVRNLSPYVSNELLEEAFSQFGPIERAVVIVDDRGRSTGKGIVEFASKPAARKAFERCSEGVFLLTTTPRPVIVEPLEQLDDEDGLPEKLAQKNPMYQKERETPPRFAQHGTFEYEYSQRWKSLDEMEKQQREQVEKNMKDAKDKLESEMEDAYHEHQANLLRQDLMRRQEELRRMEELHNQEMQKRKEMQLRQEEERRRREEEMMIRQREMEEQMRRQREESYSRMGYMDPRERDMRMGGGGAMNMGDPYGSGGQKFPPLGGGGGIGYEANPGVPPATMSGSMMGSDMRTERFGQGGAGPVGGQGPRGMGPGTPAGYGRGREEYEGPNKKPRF

[2] = label: 5'-6-FAM on strand 1, blunt

HA-tagged DAXX, full length, sequence (Q9UER7 whole entry): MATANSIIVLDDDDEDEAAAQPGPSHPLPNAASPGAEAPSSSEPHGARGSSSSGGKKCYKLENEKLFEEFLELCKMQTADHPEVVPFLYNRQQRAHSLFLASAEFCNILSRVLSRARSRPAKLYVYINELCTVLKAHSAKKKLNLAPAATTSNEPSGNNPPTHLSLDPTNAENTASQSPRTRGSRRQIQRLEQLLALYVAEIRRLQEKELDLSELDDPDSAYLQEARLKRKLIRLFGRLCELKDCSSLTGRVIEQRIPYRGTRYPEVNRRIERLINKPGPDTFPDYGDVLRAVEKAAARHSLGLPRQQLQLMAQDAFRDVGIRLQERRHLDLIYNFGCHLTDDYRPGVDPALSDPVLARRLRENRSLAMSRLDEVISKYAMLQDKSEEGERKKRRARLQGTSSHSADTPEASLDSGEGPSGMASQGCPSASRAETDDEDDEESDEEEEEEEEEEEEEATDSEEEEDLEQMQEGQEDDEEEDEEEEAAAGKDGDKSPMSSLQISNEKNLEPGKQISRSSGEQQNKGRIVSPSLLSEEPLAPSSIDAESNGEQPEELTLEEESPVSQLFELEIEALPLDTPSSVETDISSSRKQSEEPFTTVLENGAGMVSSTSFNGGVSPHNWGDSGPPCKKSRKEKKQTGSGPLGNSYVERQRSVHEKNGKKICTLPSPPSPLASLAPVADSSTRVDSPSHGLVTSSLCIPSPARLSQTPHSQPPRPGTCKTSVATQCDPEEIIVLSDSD

ratio to parent [1]: 0.2
Molecule: SFPQ proline-rich P-domain fused to GFP and a nuclear localization signal, myc-tagged (from UniProt P23246) T150delinsKP

B1: 23-nt dsDNA (D1_B:D3_B) (dsDNA)
DNA 1: CTACTACCCCCACCCTCACAACC
DNA 2: GGTTGTGAGGGTGGGGGTAGTAG
binding result (SFPQ full-length; [2]): no binding

B2: 23-nt DNA:RNA hybrid (D1_B:R2_B) (DNA:RNA)
DNA: CTACTACCCCCACCCTCACAACC
RNA: GGUUGUGAGGGUGGGGGUAGUAG
binding result (SFPQ full-length; label: 5'-6-FAM on DNA strand, blunt): no binding

Molecule: GAAAGAAAGAAAGAAAGAAAGAA (ssRNA) [ssRNA Pericentric2 ([GAAA]5)]
binding result (SFPQ full-length; label: 5'-6-FAM, single strand): binds

Molecule: UUAGGGUUAGGGUUAGGGUUAGGG (ssRNA) [ssRNA TERRA [UUAGGG]4]
binding result (SFPQ full-length; label: 5'-6-FAM, single strand): binds

Molecule: GGAAUGGAAUGGAAUGGAAUGGA (ssRNA) [ssRNA Pericentric1 (SatIII [GGAAU]4)]
binding result (SFPQ full-length; label: 5'-6-FAM, single strand): binds

B3: 23-nt blunt dsRNA (R1_B:R2_B) (dsRNA)
RNA 1: CUACUACCCCCACCCUCACAACC
RNA 2: GGUUGUGAGGGUGGGGGUAGUAG
binding result (SFPQ full-length; [2]): no binding
